This is an account of results in US11306156.

For assay [1], the target named is D3H44 light chain Q124E_S176L_T180E, N-terminal HA or FLAG tag. As to the kind of experiment: LCCA, SPR of light chain tags, L1:L2 DNA 1:3 norm. to 1:1; other light chain m14.
The target of assay [2] is D3H44 light chain Q124R_Q160K_T178R, N-terminal HA or FLAG tag. As to the kind of experiment: LCCA, SPR of light chain tags, L1:L2 DNA 1:3 norm. to 1:1; other light chain m21.
Assay [3] has as its target D3H44 light chain Q124E_T178E_T180E, N-terminal HA or FLAG tag. As to the kind of experiment: LCCA, SPR of light chain tags, L1:L2 DNA 1:9 norm. to 1:1; other light chain m17.
Assay [4] shares this target. As to the kind of experiment: LCCA, SPR of light chain tags, L1:L2 DNA 1:3 norm. to 1:1; other light chain m17.
For assay [5], the target named is D3H44 light chain Q124R_T178R, N-terminal HA or FLAG tag. Briefly: LCCA, SPR of light chain tags, L1:L2 DNA 1:3 norm. to 1:1; other light chain m16.
Assay [6] addresses D3H44 light chain Q124R_Q160K_T178R, N-terminal HA or FLAG tag. As to the kind of experiment: LCCA, SPR of light chain tags, L1:L2 DNA 1:9 norm. to 1:1; other light chain m21.
For assay [7], the target named is tissue factor (TF) antigen (UniProt P13726). Briefly: SPR, Fab captured on anti-penta-His surface, TF as analyte, 1:1 fit; estimated value, from a Fab that differs only in the L chain tag.
Assay [8] has the same target. As to the kind of experiment: SPR, Fab captured on anti-penta-His surface, TF as analyte, 1:1 fit; estimated value, from a Fab that differs only in the L chain tag; against wild-type D3H44 Fab.
The target in assay [9] is D3H44 light chain Q124R_T178R with N-terminal HA or FLAG tag. As to the kind of experiment: LCCA (SPR tag readout), L1:L2 DNA 1:3, normalized to 1:1; competing light chain m10.
Assay [10] has the same target. As to the kind of experiment: LCCA (SPR tag readout), L1:L2 DNA 1:9, normalized to 1:1; competing light chain m10.
Assay [11] has the same target. As to the kind of experiment: LCCA (SPR tag readout), L1:L2 DNA 1:3, normalized to 1:1; competing light chain m13.
In assay [12] the target is D3H44 light chain T178R with N-terminal HA or FLAG tag. The description is as above.
The target in assay [13] is D3H44 light chain Q124K_T178R with N-terminal HA or FLAG tag. The assay is described as above.
The target in assay [14] is D3H44 light chain Q124R_Q160K_T178R with N-terminal HA or FLAG tag. The assay is described as above.
In assay [15] the target is D3H44 light chain Q124E_T178E with N-terminal HA or FLAG tag. As to the kind of experiment: LCCA (SPR tag readout), L1:L2 DNA 1:9, normalized to 1:1; competing light chain m9.
Assay [16] concerns the target D3H44 light chain Q124E_T178E_T180E with N-terminal HA or FLAG tag. The description is as above.
The target in assay [17] is D3H44 light chain Q124E_T180E with N-terminal HA or FLAG tag. As to the kind of experiment: LCCA (SPR tag readout), L1:L2 DNA 1:3, normalized to 1:1; competing light chain m9.
For assay [18], the target named is D3H44 light chain Q124E_T178E with N-terminal HA or FLAG tag. The description is as above.
In assay [19] the target is D3H44 light chain Q124E_T178E_T180E with N-terminal HA or FLAG tag. Described as above.
Assay [20] addresses D3H44 light chain Q124E_T180E with N-terminal HA or FLAG tag. Briefly: LCCA (SPR tag readout), L1:L2 DNA 1:3, normalized to 1:1; competing light chain m12.
The target in assay [21] is D3H44 light chain Q124R_T178R with N-terminal HA or FLAG tag. As to the kind of experiment: LCCA (SPR tag readout), L1:L2 DNA 1:3, normalized to 1:1; competing light chain m11.
Assay [22] concerns the target D3H44 light chain Q124E_T180E with N-terminal HA or FLAG tag. As to the kind of experiment: LCCA (SPR tag readout), L1:L2 DNA 1:3, normalized to 1:1; competing light chain m14.
In assay [23] the target is D3H44 light chain Q124R_T178R with N-terminal HA or FLAG tag. Briefly: LCCA (SPR tag readout), L1:L2 DNA 1:9, normalized to 1:1; competing light chain m11.
Assay [24] addresses D3H44 light chain Q124E_T180E with N-terminal HA or FLAG tag. Briefly: LCCA (SPR tag readout), L1:L2 DNA 1:3, normalized to 1:1; competing light chain m19.
Assay [25] addresses tissue factor (TF) antigen (UniProt P13726). As to the kind of experiment: SPR, Fab captured on anti-penta-His surface, TF as analyte, 1:1 fit; Fab batch C. In general terms: In SPR one partner is held on a chip, and binding of the other changes the refractive index at the surface.
The target is the same in assay [26]. As to the kind of experiment: SPR, Fab captured on anti-penta-His surface, TF as analyte, 1:1 fit; Fab batch C; against wild-type D3H44 Fab.
Assay [27] has as its target D3H44 light chain Q124E_V133W_T180E, N-terminal HA or FLAG tag. Briefly: LCCA, SPR of light chain tags, L1:L2 DNA 1:3 norm. to 1:1; other light chain m14.
The target in assay [28] is D3H44 light chain Q124R_T178R, N-terminal HA or FLAG tag. Briefly: LCCA, SPR of light chain tags, L1:L2 DNA 1:3 norm. to 1:1; other light chain m25.
The target of assay [29] is tissue factor (TF) antigen (UniProt P13726). Briefly: vs wild-type D3H44 Fab (KD 0.157 nM); SPR, Fab captured on anti-penta-His, TF as analyte; batch C (+).
The target is the same in assay [30]. As to the kind of experiment: SPR, Fab captured on anti-penta-His, TF as analyte, 1:1 fit; batch C (+).
Assay [31] deals with D3H44 light chain Q124E_T180E, N-terminal HA or FLAG tag. Briefly: LCCA, L1:L2 DNA 1:3, SPR of light chain tags; competing light chain m14.
Assay [32] addresses D3H44 light chain Q124R_T178K, N-terminal HA or FLAG tag. Briefly: LCCA, L1:L2 DNA 1:9, SPR of light chain tags; competing light chain m11.
Assay [33] has as its target D3H44 light chain Q124R_T178R, N-terminal HA or FLAG tag. The description is as above.
Assay [34] deals with D3H44 light chain Q124E_Q160E_T180E, N-terminal HA or FLAG tag. Briefly: LCCA, L1:L2 DNA 1:9, SPR of light chain tags; competing light chain m16.
Assay [35] has the same target. As to the kind of experiment: LCCA, L1:L2 DNA 1:9, SPR of light chain tags; competing light chain m12.
Assay [36] shares this target. As to the kind of experiment: LCCA, L1:L2 DNA 1:3, SPR of light chain tags; competing light chain m12.
Assay [37] addresses D3H44 light chain Q124R_Q160K_T178R, N-terminal HA or FLAG tag. As to the kind of experiment: LCCA, L1:L2 DNA 1:3, SPR of light chain tags; competing light chain m13.
In assay [38] the target is D3H44 light chain T178R, N-terminal HA or FLAG tag. Described as above.
The target in assay [39] is D3H44 light chain Q124E_T180E, N-terminal HA or FLAG tag. As to the kind of experiment: LCCA, L1:L2 DNA 1:3, SPR of light chain tags; competing light chain m10.
In assay [40] the target is D3H44 light chain Q124R_T178K, N-terminal HA or FLAG tag. As to the kind of experiment: LCCA, L1:L2 DNA 1:3, SPR of light chain tags; competing light chain m11.
Assay [41] addresses D3H44 light chain Q124R_T178R, N-terminal HA or FLAG tag. Described as above.
Assay [42] addresses D3H44 light chain Q124E_Q160E_T180E, N-terminal HA or FLAG tag. Briefly: LCCA, L1:L2 DNA 1:3, SPR of light chain tags; competing light chain m16.

“D3H44 Fab heavy chain S186R, ABD2-His6 tagged”: the H2L2:H2L1 normalized median ratio in assay [1] stood at 93%; in assay [2], 6%; in [3], 87%; in [4], 94%; in assay [5], 7%; in [6], 13%.

By Kd is commonly meant the equilibrium constant for the complex coming apart. For the substance “D3H44 H1L1 Fab heterodimer of LCCA Set # 9707 (H1 L143E_K145T_S188L; L1 Q124R_Q160K_T178R)”, the Kd in assay [7] is 0.24 nM. The change in median KD compared to wild type, -(log(KD design)-log(KD wt)) in assay [8] is -0.19.

Take “D3H44 Fab heavy chain S186R with C-terminal ABD2-His6 tag”: the H2L2:H2L1 normalized median ratio in assay [9] stood at 7%; in [10] it was 18%; in assay [11], 4%; in assay [12], 4%; in assay [13] it was 3%; in [14], 2%. Moreover, the H2L2:H2L1 normalized median ratio came to 82% in assay [15]; 82% in assay [16]; 96% in [17]; 96% in assay [18]; 93% in [19]; 97% in assay [20]. In addition, the H2L2:H2L1 normalized median ratio was determined as 4% in [21], 98% in assay [22], 18% in assay [23] and 96% in assay [24].

With “D3H44 H1L1 Fab heterodimer of LCCA Set # 9657 (H1 L143E_K145T_Q179E; L1 Q124R_T178K)”, the Kd in [25] and in assay [7] was 0.19 nM each time. The change in median KD compared to wild type, -(log(KD design)-log(KD wt)) in [8] and in assay [26] was -0.08 each time.

As for “D3H44 Fab heavy chain L124A_Q179K, ABD2-His6 tagged”, in assay [27], the H1L1:H1L2 normalized median ratio worked out at 95% and the H1L1:H1L2 normalized median scalar value ln(r1/f1) stood at 2.9. For the same substance, the H1L1:H1L2 normalized median ratio in assay [28] worked out at 5%.

“H1L1 Fab heterodimer of LCCA set 9620 (D3H44 Fab, H1 L143E_K145T_Q179D, L1 Q124R_Q160K_T178R)” registered a change in median KD compared to wild type, -(log(KD design)-log(KD wt)) in assay [29] of 0.39. Besides, in assay [30], the Kd stood at 0.06 nM.

On to “D3H44 Fab heavy chain L124A_S186K, ABD2-His6 tagged”, for which the H1L1:H1L2 normalized median ratio in [27] was 95%; in assay [28], 5%. Besides, the H1L1:H1L2 normalized median scalar value ln(r1/f1) in assay [27] worked out at 2.98.

With “D3H44 Fab heavy chain S186R, C-terminal ABD2-His6 tag”, the H2L2:H2L1 normalized median ratio in [31] was 98 share of 100; in assay [32], 11 share of 100; in [33], 14 share of 100; in assay [34], 89 share of 100; in [35], 86 share of 100; in [36], 81 share of 100. In addition, the H2L2:H2L1 normalized median ratio in assay [37] is 2 share of 100; in assay [38], 4 share of 100; in [39], 96 share of 100; in [40] it was 17 share of 100; in [41], 19 share of 100; in [42], 83 share of 100.

The substance “H1L1 Fab heterodimer of LCCA sets 9801 and 9802 (D3H44 Fab, H1 Q179R, L1 Q124E_Q160E_T178E)” showed a change in median KD compared to wild type, -(log(KD design)-log(KD wt)) in [29] of 0.16. The substance further showed a Kd in assay [30] of 0.11 nM.

“H1L1 Fab heterodimer of LCCA set 9654 (D3H44 Fab, H1 L143E_K145T_Q179E, L1 Q124R_Q160K_T178R)”: the change in median KD compared to wild type, -(log(KD design)-log(KD wt)) in [29] was found to be 0.02. In [30], the equilibrium dissociation constant (Kd) worked out at 0.15 nM.

For the substance “D3H44 H1L1 Fab heterodimer of LCCA Set # 9626 (H1 L143E_K145T_Q179D; L1 Q124R_T178K)”, the dissociation constant (Kd) in [25] and in assay [7] was 0.12 nM throughout. The change in median KD compared to wild type, -(log(KD design)-log(KD wt)) in [8] and in assay [26] was 0.12 throughout.
